The nanobody polyreactivity screen of Harvey et al. (2022)

test: yeast display, Sf9 membrane polyspecificity reagent, FACS + sequencing; frameworks hold sequencing errors
How it was run: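 Nanobodies from a synthetic yeast display library (Saccharomyces cerevisiae BJ5465), induced 36–48 hours with galactose, were stained 1 hour at 4 °C with 10% biotinylated, detergent-solubilized Sf9 membrane reagent, enriched on streptavidin microbeads, then FACS-sorted. Anti-HA (expression) and streptavidin (reagent binding) fluorescence set low and high (top ~1%) gates. Polyreactivity labels come from the gate of origin. Genes were colony-PCR amplified, MiSeq 2 × 250 sequenced and filtered by CDR length.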

Sequence	polyreactivity (PSR sort gate)
QVQLVESGGGLVQAGGSLRLSCAASGRIFAWYAMGWYRQAPGKERELVAAISDSGRSTYYADSVKGRFTISRDNAKNTVYLQMNSLKPEDNAVYYCAADQVVYSAYWCDHYDYWGQGTQVTVSS	low polyreactivity
QVQLVESGGGLVQAGGSLRLSCAASGSTFGGYAMGWYRQAPRKERELVAAISQSGTRTFYADSVKGRFSISRDNAKNTVYLQMKSLKPEDSAVYYCAAVRSYRRALLTLDYWGLGTQVTVSS	high polyreactivity
QVQLVESGGGLVQAGGSLRLSCAASGITFFYYAMGWYRQAPGKERELVAAINWSGRTYYADSVKGRFTISRDNAKNTVYLQMNSLKPEDTAVYYCAAVTYGPGVSGMDYWGQGTQVTVSS	low polyreactivity
QVQLVVSGGGLVQAGGSLRLSGAASGSIFWVYAMGWSRQAPGKELELVAAINWRGGSTYYADSVKGRFTISRDNAKNTVYLQKNSLKPEDTAVYNCAVQPNYYGMGYWGQGTQVTVSS	high polyreactivity
QVQLVESGGGLVQAGGSLRLSCAPSGFTFGDYAMGWYRQAPGKERELVAAISWSGSNTYYADSVKGRFTLSRDNAKNTVYLQMNSLKPEDTAVYYCNADYDPEDMDYWGQGTQVTVSS	low polyreactivity
QVQLVESGGGLVQAGGSLGLSCAASGSIFRGYAMGWYIQAPGKERELVAAITSSGGSTNYADSVKGRFTISRDNAKNTVYLQMNSLKPEDTAVYYCAAGVIREKYYIWSDYEYDYWGQGTQVNVSS	low polyreactivity
QVQLLESGGGLVQAGGSLRLSCAASGFIFDIYAMGWYRQAPGKERELVASINWSGGDSTSYADSVKGRFTISRDNAKNTVFLQMYSLKPEDTAVYFCNAEYWSYSGGYPDEYDYWGLGTQVTVSS	low polyreactivity
QVQLVESGGGLVQAGGSLRLSCAASGSIFGPYAMGWYRQAPGKERELVADIRTSGGGTYYADSVKGRFTISRDNAKNTVYLQMNSLKPEDTAVYYCNADPKWEMGSWGQGTQVTVSS	low polyreactivity
QVQLVESGGGLVQAGGSLRLSCAASGSTFVRNDMGWYRQAPGKERELVAAINGDGRTYYADSVKGRFTISRDNAKNTVYLQLNSLKPEDTAVYYCAADGYLLYVQHPNGRRYDYWGQGTQVTVSS	low polyreactivity
QVQLVESGGGLVQAGGSLRLSCAASGSIFVTNAMGWYRQAPGKERELVAAIRGGGGSTYYADSVKGRFTISRDNAKNTVYLQMNSLKPEDTAVYYCNADRRGYLQSEMDYWGQGTQVTVSS	low polyreactivity
QVQLVESGGCLVQAGGSLRLSCAASGSIFRYYNMGWYRQAPGKERELVAVINWSGGSTYYADSVKWRFTISRDNAKNTVYLQMNSLKPEDCAVYYCAICFWRTRRYGADPRTKYDYWGLGTQVTVSS	high polyreactivity
QVQLVESGGGLVQAGGILRLSCAASGSTGTYMGSYRQAPGKEREMVAAIDNIGDNTYYADSVKGRFTISRDNAKNTVYLQMNSLKPEDTAVYYCPADFYVYYPWLFEYDYWGQGTQVTVSS	low polyreactivity
QGQLVESGGGLVQAGGSLRLKCAASVFTFQFYDMGWYRQAPGKEMEFVATITWRAGSTYYADSVKGRFTISRDNAKNTVYLQMNSLKPEDTAVYYCIADYYRHSLDYDYVGYDYWGQGTQVTVSS	low polyreactivity
QVQLVESGGGLVQAGGSLRLSCAASGRTFYTNAMGWSRQAPGKERELVAAISRGGGRTYYADSVKGRFTISRDNAKNTVYLQMNSLKPEDTAVYYCAASPYQGQGREYYYWGQGTQVTVSS	high polyreactivity
QVQLVESGGGLVQAGGSLRLICADSGSTFSPNGMGWYTQAHGKERELVAAITSVGSTYYAESVEGRFTISRDNELNTVYFQMNSLQPVDTAVFYCAKGQRDSEEYDYWGQGTQVTVSS	low polyreactivity
QVQLVESGGGLVQAGGSLRLSCAASGSTFYSYGMGWYRPAPGKERELVAAITKRVGRTYYADSVKGRFTISRDNAKNTVYLQMNSLKPEDTAVYYCAARAWTRSVPYGFYYWGQGTQVTVSS	high polyreactivity
QVQLVESGGGLVQAGGSLRLSCAASGRIVYVNVMGWYRQAPGKERELVAAINWSDGSTYYADSVKGRFTISRDNAKNTVYLQMNSLKPEETAVYYFNRRGPYGYKAWAIGTIGDLDYWGHGTQVTVSS	low polyreactivity
QVQLVESGGGLVQAGGSLRLSCAASGRIFSRYAMGWYRQAPGKERELVAAIRWSGGRTYYADSVKGRFTISRDNAKNTVYLQMNSLKPEDTAVYYCAKYRYTVAGYNYWGQGTQVTVSS	high polyreactivity
QVQLVESGGGLVQAGGSLRLSCAASGRTFARNAMGWYRQAAGKERELVAAITSIGTRTYYADAVKGRFTISRDNAKNTVYLQMNSLKPEDTAVYYCNKKRTADYDYWGQGTQVSVSS	low polyreactivity
QVQLVESGGGLVQAGGSLRLSCAASGRIFWRNAMGWYRQAPGKERELVAAISSGGSTYYADSVKGRFTISRDNAKNTVYFQMNSLKPEDTAVYYCAARSSWRGVRYDHFERDYWGQGTQVTVSS	high polyreactivity

Sequence	polyreactivity (PSR sort gate)
QVQLVESGGGLVQAGGSLRISCAASGFTFNKYAMGWYRQAPGKERELVAALTVSGSRTYYADSVKGRFTISRDNAKNTVYLQMNSLKPEDTAVYYCAARKWYYYLRPWTSVGGYYWGQGTQVTVSS	high polyreactivity
QVQLVESGGGLVQAGGSLRLSCAASGGIFVVYGMGWYRQAPGKERELVAAISWRGGSTYYADSVKGRFTISRDNAKNTVYLQMNSLKPEDTAVSYCAADQYYGGYDYWGQGTQVTVSS	low polyreactivity
QVQLVESGGGLVQAGGSLRLSCAASGRTYLYYVMGWYIQAPGKEREVVAAISYSGGSTYYADSVKGRFTISRDNAKNTVYLQMNSLKPEDTAVYYCTAVPVVRAGHGYDSWGQGTQVTVSS	high polyreactivity
QVQLVESGGGLFQAGGSLRLICAASGFIFGWYDMGWYRQAPGKERELVAAIDSGGSTNYADSVKGRFTISRDNAKYTVYLQMNSLKPEDTAVYYCAADHHDVWTEYYYWGHGTQVTVSS	low polyreactivity
QVQLVESGGGLVQAGGSLRLSCAASGSTFSRNAMGWYRQAPGKERELVAAITQSGGRTYYADSVKGRFTISRDNAKNTVYLQMNSLKPEDTAVYYCNARGRRSGYISGYDYWGQGTQVTVSS	high polyreactivity
QVQLVESGGGLVQAGGSLRLSCAASGMTFGLYAMGWYRQAPGKERELVAAISKRGGSTNYADSVKGRFTISRDNAKNTVYLQMNSLKPEDTAGYYCAARYPQRGTGKATYVRSRSGYWGLGTQVTVSS	high polyreactivity
QVQLVESGGGLVQAGGSLRLSCAASGFIFYSNAMGWYRQAPGKERELVAAISRGGGSTYYADSVKGRFTISRDNAKNTVYLQMNSLKPEDTAVYYCAKRRLSPQDDYWGQGTQVTVSS	high polyreactivity
QVQHVESGGGLVQAGGSLRLSCAASGSIFRRYDLGWSRQAPGKERELVAAISSSGGSTYYADSVKGRFTISRDNAKNTVYLQMNSLKPEDTAVYYCAADIYDDDRSESTEYDYWGQGTQVTVSS	low polyreactivity
QVQLVESGGGLFQAGGSLRLSCAASGSIFWSYAMGWYRQAPGKERELVAAISSGGSTNYADSVKGRFTISRDNAKNTVYLQMNSLQPEDTAVYYCNALGAKGYVKGFDYWGQGTQVTVSS	low polyreactivity
QVQLVESGGGLVQAGGSLRLSCAASGFTFRGYAMGWYRQAPGKERELVAAITSRGGTTYYADSVKGRFTISRDNAKNTVYLQMNSLKPEDTAVYYCATTGGYTRGIGWYNYWGQGTQVTVSS	high polyreactivity
QVQLVESGVGLVQAGGSLRLSCAASGFTFSYNALGWYRQAPGKERELVAAISSSGGSTYYADSVKGRFTISRDNAKNTVYLQMNILKPEDTAVYYCAVPYLTLYGRTYDYWGHGTQVTVSS	high polyreactivity
QVQLVESGGGLVQAGGSLRLSCAASGSIFGDNAMGWYRQAPGKERELVATISSSDASTYYADSVKGRFTISRDNAKKTVYLQMNSLKPEDTAVYYCAAARSGGYDYWGQGTQVTVSS	low polyreactivity
QVQLVESGGGLVQAGGSLRLSCAASGSIFLLYARGWYRQAPGKERELVAAISRGGSTYYADSVKGRFTISRDNAKNTVYLQMNSLKPEDTAVYYCAAKLYYGYDWGQGTQVTVSS	low polyreactivity
QVQLVESGGGLVQAGGSLRLSCAASGRTFKYYAMGWYRQAPGKERELVAAISYNGGSTFYADSVKGRFTISRDNAKNTVYLQMNSLKPVDTAVYYCAAGPRGTGKYYWGQGTQVTVSS	high polyreactivity
QVPLVESGGGIVQAGGSLRLSCAASGRTFRYNAMGWDRQAPGKEREKVAAITYGGGSTYYADSVKGRFTISRDNEKNTVYLQMNILKPEDTAVYYCATRGVSPSRPGYYCGQGTQVTVSS	high polyreactivity
QVQLVESGGGLVQAGGSLGLSCAASGSTFAGNTMGWYRQAPGKERELVATITRGDSTNYADSVKGRFTISRDNAKNTVYLQMNSLIPEDTAVYYCAAVGRRRTTVGRYVRMDYWGQGTQVTVSS	low polyreactivity
QVQLVESGGGLVQAGGSLRLSCAASGRTFYSYAMGWYRQAPGKERELVAAINTSGGRTHYADSVKGRFTISRDNAKNTVYLQMNCMKPEDTAVYYCAKLARSGTLTYYYWGQGTQVNVSS	high polyreactivity
QVQLVESGGGLVQAGGSLRLSCSASGFIFDVYAMGWYRPAPGKERELVAAISRSGGSTYYADSVKGRFTISRDNAKNTVYLQMNSLKPEDTAVYYCATVLLNNVDYDYWGQGTQVTVSS	low polyreactivity
QVQLVESAGGLVQAGGSLRLSCAASGSICTKYAMGWYRQAPGKERELVAAISASGGSTYYADSVKGRFTISRDNAKNTVYLQMNSLKPEDTAVYYCAARYWVREDYWGQGTQVTVSS	high polyreactivity
QVQLVESGGGLVKAGGSLRLSCAASGFILRAYAMGWYRQAPGKEREFVAAITRRGGRTYYADSVKGRFTISRDNAKKTVSLQMYSLKPEDTAVYYCNRVERRGTYDYWGQGTQVTVSS	high polyreactivity
